Test results reported in patent US20050037963.

Experiments:
[1] = tested on: HA-tagged full-length FIP200 (pKH3-FIP200, residues 1-1591)
[2] = tested on: GST fusion protein containing CT-FIP (pGEX-CT-FIP)

Chain of FAK immunoprecipitated from Chinese hamster ovary cells overexpressing FAK (Q05397 2-1052): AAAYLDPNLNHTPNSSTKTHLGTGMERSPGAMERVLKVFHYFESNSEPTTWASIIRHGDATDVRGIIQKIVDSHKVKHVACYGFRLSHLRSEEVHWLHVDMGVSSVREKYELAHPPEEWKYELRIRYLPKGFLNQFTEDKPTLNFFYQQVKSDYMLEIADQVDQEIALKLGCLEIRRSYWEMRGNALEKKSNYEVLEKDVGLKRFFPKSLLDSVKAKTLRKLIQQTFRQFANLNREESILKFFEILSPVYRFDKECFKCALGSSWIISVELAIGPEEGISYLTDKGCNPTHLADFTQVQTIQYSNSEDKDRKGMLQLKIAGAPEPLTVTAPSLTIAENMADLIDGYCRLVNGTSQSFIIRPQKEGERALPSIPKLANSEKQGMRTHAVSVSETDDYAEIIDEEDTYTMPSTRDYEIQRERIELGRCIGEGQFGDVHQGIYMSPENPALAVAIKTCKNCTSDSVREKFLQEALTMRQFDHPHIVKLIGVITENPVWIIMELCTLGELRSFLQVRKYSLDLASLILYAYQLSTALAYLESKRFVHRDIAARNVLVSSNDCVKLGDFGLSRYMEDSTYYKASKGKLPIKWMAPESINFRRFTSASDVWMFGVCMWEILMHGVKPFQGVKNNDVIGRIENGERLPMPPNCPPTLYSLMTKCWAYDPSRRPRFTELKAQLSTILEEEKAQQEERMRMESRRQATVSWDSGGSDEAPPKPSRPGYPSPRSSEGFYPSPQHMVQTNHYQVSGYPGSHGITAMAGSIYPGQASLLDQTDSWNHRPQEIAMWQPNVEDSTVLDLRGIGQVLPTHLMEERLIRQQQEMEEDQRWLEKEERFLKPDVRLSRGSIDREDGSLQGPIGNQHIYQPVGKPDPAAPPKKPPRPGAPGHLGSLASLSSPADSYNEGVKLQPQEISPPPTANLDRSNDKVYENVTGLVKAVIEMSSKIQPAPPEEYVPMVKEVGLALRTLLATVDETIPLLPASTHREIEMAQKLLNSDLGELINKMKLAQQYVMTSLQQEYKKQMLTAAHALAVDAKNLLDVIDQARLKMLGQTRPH
Chain of FAK expressed from an expression vector encoding FAK (tag not stated) (Q05397 2-1052): as above

Substance	rescue of BrdU incorporation (NIH3T3) [1]	FAK kinase activity (in vitro kinase assay, E4Y1 as exogenous substrate) (GST alone [GST: P08515])	FAK kinase activity (in vitro kinase assay, E4Y1 as exogenous substrate) [2]
FAK expressed from an expression vector encoding FAK (tag not stated)	it rescued the inhibition of BrdU incorporation by FIP200 to the control levels	–	–
FAK immunoprecipitated from Chinese hamster ovary cells overexpressing FAK	–	GST alone did not have any effect	at lower concentrations (e.g., <5 pmol/reaction), GST fusion proteins containing NT-FIP or MD-FIP reduced FAK kinase activity, whereas CT-FIP did not
